Here are results for 1 molecule from PMC5150216, “Actin activates Pseudomonas aeruginosa ExoY nucleotidyl cyclase toxin and ExoY-like effector domains from MARTX toxins” (Nature Communications, 2016).

The target in experiment [1] is T1, α-actin from rabbit skeletal muscle (rabbit, UniProt P68135 1-377). Description: co-sedimentation; as a6, F-actin with 6 μM phalloidin. Particulars: both partners purified.
For experiment [2], the target named is T1, α-actin from rabbit skeletal muscle. Put plainly: co-sedimentation. Particulars: both partners purified.

B1: MBP-ExoY^K81M-ST (enzyme)
chain: MRIDGHRQVVSNATAQPGPLLRPADMQARALQDLFDAQGVGVPVEHALRMQAVARQTNTVFGIRPVERIVTTLIEEGFPTMGFSVKGKSSNWGPQAGFICVDQHLSKREDRDTAEIRKLNLAVAKGMDGGAYTQTDLRISRQRLAELVRNFGLVADGVGPVRLLTAQGPSGKRYEFEARQEPDGLYRISRLGRSEAVQVLASPACGLAMTADYDLFLVAPSIEAHGSGGLDARRNTAVRYTPLGAKDPLSEDGFYGREDMARGNITPRTRQLVDALNDCLGRGEHREMFHHSDDAGNPGSHMGDNFPATFYLPRAMEHRVGEESVRFDEVCVVADRKSFSLLVECIKGNGYHFTAHPDWNVPLRPSFQEALDFFQRKV
notes: also called His-MBP-ExoY^K81M-ST; source: expressed from pEA12 (Ptac promoter); purified under non-denaturing conditions (HisTrap, StrepTrap, Superdex 200); not shown: His-tag, N-terminal, kept; MBP, N-terminal, kept; Strep-tagII, C-terminal, kept
The Kd is the constant that tells how readily two partners part at equilibrium. Low values mean higher affinity, high ones lower affinity. What is called stoichiometry N is a count of units in the complex or per binding partner. For B1, in experiment [1], the dissociation constant (Kd) fell in the range of 1600 to 1800 nM. In experiment [2], the Kd came to 1600 ± 300 nM and the “stoichiometry N” value was 1.
